According to PMC8908738:

Tests used:
thrombin [1] = biological target: T1, thrombin (UniProt P00734;P00734 328-363;364-622); assay: competitive hybridization, CD of DNA origami chiral plasmonic probe; 170 nM thrombin, n=7-11 bp at aptamer 5' end; R2=0.94 (below the authors' 0.95 validity threshold); Binding buffer, pH and temperature not given in the material shown; origami assembled in TE with 20 mM MgCl2 and 5 mM NaCl; thrombin 170 nM
thrombin [2] = biological target: T1, thrombin; assay: competitive hybridization, CD of DNA origami chiral plasmonic probe; 170 nM thrombin, n=7-11 bp at aptamer 3' end; R2=0.97; Binding buffer, pH and temperature not given in the material shown; origami assembled in TE with 20 mM MgCl2 and 5 mM NaCl; thrombin 170 nM

B1: thrombin DNA aptamer, 5' bridge lock (complement hybridizes at aptamer 5' end) (structured_DNA)
DNA: CTAGCGAGCGAACTTTGGTTGGTGTGGTTGG
Thrombin [1]
  Kd: 235 nM

B2: thrombin DNA aptamer, 3' bridge lock (complement hybridizes at aptamer 3' end) (structured_DNA)
DNA: GGTTGGTGTGGTTGGTTTAGAGTGAGCAGAG
Thrombin [2]
  Kd: 46.7 nM
